{"source": "patent US20190241648A1", "about": "(STATEN BIOTECHNOLOGY B V, published 2019)", "binders": {"B1": {"name": "Llama antibody 5E5 (antibody, V domains shown)", "VH": "QLQLVESGGGLVQPGGSLRLSCAASGFTFGTYSMRWVRQVPRKALEWVSSISTDGGGTAYRDSVKGRFTISRDNAKNTLYLQMNNLKPEDTAIYYCVIAGYSDWGQGTQVTVSS", "VL": "ATMLTQSPGSLSVVPGESASISCKTSQGLVHSDGKTYFYWFLQKPGQSPQQLIYQVSNRASGVPDRFTGSGSGTDFTLKISGVKAEDAGVYYCAQGTYYPHTFGSGTRLEIK", "notes": "detected with goat anti-human IgG (Fc); also called mAb 5E5"}}, "assay_in_all_cases": "cyclic peptide substitution array", "key": {"ApoC3 peptide V71I": {"target": "T1, ApoC3 peptide V71I (human, thioether (positions not given here); also: cyclic (thioether), ring places not given here)", "T1 peptide": "DKFSEFWDLDPEI", "source_text": "(§1) S62 and D68 of mature huApoC3 were also highly conserved; substitution of S62 by A or V, and substitution of D68 by E or P, caused decrease of spot intensities by ˜60% or higher. […] Amino acid F64 was completely variable.\n(§2) Pre: staining of one of the ApoC3 peptide microarrays was done with the secondary antibody goat anti-human IgG (Fe) DyLight680 (1:5000) and control antibody mouse monoclonal anti-HA (12CA5) DyLight800 (1:2000) to investigate background interactions of the secondary antibody with the antigen-derived peptides that could interfere with the main assays. Subsequent incubation of other ApoC3 peptide microarrays with antibody samples was followed by staining with secondary and control antibodies as well as read-out at scanning intensities of 7/7 (red/green). The additional HA peptides framing the peptide arrays were stained as internal quality control to confirm the assay quality and the peptide microarray integrity."}, "ApoC3 peptide F61Q": {"target": "T2, ApoC3 peptide F61Q (human, cyclic (thioether))", "T2 peptide": "DKQSEFWDLDPEV", "source_text": "as §1, §2"}, "ApoC3 peptide W65G": {"target": "T3, ApoC3 peptide W65G (human, not fully specified; cyclic (thioether))", "T3 peptide": "DKFSEFGDLDPEV", "source_text": "as §1, §2"}, "ApoC3 peptide D68W": {"target": "T4, ApoC3 peptide D68W (human, cyclic (thioether))", "T4 peptide": "DKFSEFWDLWPEV", "source_text": "as §1, §2"}, "ApoC3 peptide F64I": {"target": "T5, ApoC3 peptide F64I (human, thioether (positions not given here); not fully specified (bridges); also: cyclic (thioether), positions not given here)", "T5 peptide": "DKFSEIWDLDPEV", "source_text": "as §1, §2"}, "ApoC3 peptide D66C": {"target": "T6, ApoC3 peptide D66C (human, not fully specified; cyclic (thioether))", "T6 peptide": "DKFSEFWCLDPEV", "source_text": "as §1, §2"}, "ApoC3 peptide V71W": {"target": "T7, ApoC3 peptide V71W (human, not fully specified; cyclic (thioether))", "T7 peptide": "DKFSEFWDLDPEW", "source_text": "as §1, §2"}, "ApoC3 peptide D59V": {"target": "T8, ApoC3 peptide D59V (human, thioether (positions not given here); not fully specified (C-terminus, bridges); also: cyclised via thioether between a C-terminal Cys and a modified N-terminus, the Cys and the N-terminal …)", "T8 peptide": "VKFSEFWDLDPEV", "source_text": "as §1, §2"}, "ApoC3 peptide V71P": {"target": "T9, ApoC3 peptide V71P (human, not fully specified; cyclic (thioether))", "T9 peptide": "DKFSEFWDLDPEP", "source_text": "as §1, §2"}, "ApoC3 peptide K60I": {"target": "T10, ApoC3 peptide K60I (human, cyclic (thioether))", "T10 peptide": "DIFSEFWDLDPEV", "source_text": "as §1, §2"}, "ApoC3 peptide P69S": {"target": "T11, ApoC3 peptide P69S (human, not fully specified; cyclic (thioether))", "T11 peptide": "DKFSEFWDLDSEV", "source_text": "as §1, §2"}, "ApoC3 peptide P69I": {"target": "T12, ApoC3 peptide P69I (human, not fully specified; cyclic (thioether))", "T12 peptide": "DKFSEFWDLDIEV", "source_text": "as §1, §2"}, "ApoC3 peptide E63I": {"target": "T13, ApoC3 peptide E63I (human, cyclic (thioether))", "T13 peptide": "DKFSIFWDLDPEV", "source_text": "as §1, §2"}, "ApoC3 peptide K60D": {"target": "T14, ApoC3 peptide K60D (human, thioether (positions not given here); not fully specified (bridges); also: cyclic (thioether), positions not given here)", "T14 peptide": "DDFSEFWDLDPEV", "source_text": "as §1, §2"}, "ApoC3 peptide L67M": {"target": "T15, ApoC3 peptide L67M (human, thioether (positions not given here); not fully specified (bridges); also: thioether between a C-terminal Cys side chain and a modified N-terminus, the Cys is not in the chain)", "T15 peptide": "DKFSEFWDMDPEV", "source_text": "as §1, §2"}, "ApoC3 peptide F61L": {"target": "T16, ApoC3 peptide F61L (human, cyclic (thioether))", "T16 peptide": "DKLSEFWDLDPEV", "source_text": "as §1, §2"}, "ApoC3 peptide F61D": {"target": "T17, ApoC3 peptide F61D (human, cyclic (thioether))", "T17 peptide": "DKDSEFWDLDPEV", "source_text": "as §1, §2"}, "ApoC3 peptide D68F": {"target": "T18, ApoC3 peptide D68F (human, cyclic (thioether))", "T18 peptide": "DKFSEFWDLFPEV", "source_text": "as §1, §2"}, "ApoC3 peptide F64T": {"target": "T19, ApoC3 peptide F64T (human, thioether (positions not given here); not fully specified (bridges); also: cyclic (thioether), positions not given here)", "T19 peptide": "DKFSETWDLDPEV", "source_text": "as §1, §2"}, "ApoC3 peptide D59G": {"target": "T20, ApoC3 peptide D59G (human, thioether (positions not given here); not fully specified (C-terminus, bridges))", "T20 peptide": "GKFSEFWDLDPEV", "source_text": "as §1, §2"}, "ApoC3 peptide W65V": {"target": "T21, ApoC3 peptide W65V (human, cyclic (thioether))", "T21 peptide": "DKFSEFVDLDPEV", "source_text": "as §1, §2"}, "ApoC3 peptide V71Q": {"target": "T22, ApoC3 peptide V71Q (human, not fully specified; cyclic (thioether))", "T22 peptide": "DKFSEFWDLDPEQ", "source_text": "as §1, §2"}, "ApoC3 peptide W65K": {"target": "T23, ApoC3 peptide W65K (human, cyclic (thioether))", "T23 peptide": "DKFSEFKDLDPEV", "source_text": "as §1, §2"}, "ApoC3 peptide S62I": {"target": "T24, ApoC3 peptide S62I (human, thioether (positions not given here); also: cyclic (thioether), ring places not given here)", "T24 peptide": "DKFIEFWDLDPEV", "source_text": "as §1, §2"}, "ApoC3 peptide D66Y": {"target": "T25, ApoC3 peptide D66Y (human, cyclic (thioether))", "T25 peptide": "DKFSEFWYLDPEV", "source_text": "as §1, §2"}, "ApoC3 peptide P69M": {"target": "T26, ApoC3 peptide P69M (human, not fully specified; cyclic (thioether))", "T26 peptide": "DKFSEFWDLDMEV", "source_text": "as §1, §2"}, "ApoC3 peptide W65Y": {"target": "T27, ApoC3 peptide W65Y (human, cyclic (thioether))", "T27 peptide": "DKFSEFYDLDPEV", "source_text": "as §1, §2"}, "ApoC3 peptide F61S": {"target": "T28, ApoC3 peptide F61S (human, cyclic (thioether))", "T28 peptide": "DKSSEFWDLDPEV", "source_text": "as §1, §2"}, "ApoC3 peptide E70L": {"target": "T29, ApoC3 peptide E70L (human, cyclic (thioether))", "T29 peptide": "DKFSEFWDLDPLV", "source_text": "as §1, §2"}, "ApoC3 peptide W65Q": {"target": "T30, ApoC3 peptide W65Q (human, cyclic (thioether))", "T30 peptide": "DKFSEFQDLDPEV", "source_text": "as §1, §2"}, "ApoC3 peptide S62E": {"target": "T31, ApoC3 peptide S62E (human, not fully specified; cyclic (thioether))", "T31 peptide": "DKFEEFWDLDPEV", "source_text": "as §1, §2"}}, "note": "Ends that are not written are not given here.", "data": [{"binder": "B1", "values": [{"measurement": "% of binding to wild-type peptide", "setting": "ApoC3 peptide V71I", "value": 66, "unit": "%"}, {"measurement": "% of binding to wild-type peptide", "setting": "ApoC3 peptide F61Q", "value": 75.6, "unit": "%"}, {"measurement": "% of binding to wild-type peptide", "setting": "ApoC3 peptide W65G", "value": 0, "unit": "%"}, {"measurement": "% of binding to wild-type peptide", "setting": "ApoC3 peptide D68W", "value": 0, "unit": "%"}, {"measurement": "% of binding to wild-type peptide", "setting": "ApoC3 peptide F64I", "value": 69.3, "unit": "%"}, {"measurement": "% of binding to wild-type peptide", "setting": "ApoC3 peptide D66C", "value": 10.3, "unit": "%"}, {"measurement": "% of binding to wild-type peptide", "setting": "ApoC3 peptide V71W", "value": 68.7, "unit": "%"}, {"measurement": "% of binding to wild-type peptide", "setting": "ApoC3 peptide D59V", "value": 43.3, "unit": "%"}, {"measurement": "% of binding to wild-type peptide", "setting": "ApoC3 peptide V71P", "value": 173, "unit": "%"}, {"measurement": "% of binding to wild-type peptide", "setting": "ApoC3 peptide K60I", "value": 106, "unit": "%"}, {"measurement": "% of binding to wild-type peptide", "setting": "ApoC3 peptide P69S", "value": 86.9, "unit": "%"}, {"measurement": "% of binding to wild-type peptide", "setting": "ApoC3 peptide P69I", "value": 48, "unit": "%"}, {"measurement": "% of binding to wild-type peptide", "setting": "ApoC3 peptide E63I", "value": 0, "unit": "%"}, {"measurement": "% of binding to wild-type peptide", "setting": "ApoC3 peptide K60D", "value": 200, "unit": "%"}, {"measurement": "% of binding to wild-type peptide", "setting": "ApoC3 peptide L67M", "value": 12.5, "unit": "%"}, {"measurement": "% of binding to wild-type peptide", "setting": "ApoC3 peptide F61L", "value": 63.4, "unit": "%"}, {"measurement": "% of binding to wild-type peptide", "setting": "ApoC3 peptide F61D", "value": 16, "unit": "%"}, {"measurement": "% of binding to wild-type peptide", "setting": "ApoC3 peptide D68F", "value": 0, "unit": "%"}, {"measurement": "% of binding to wild-type peptide", "setting": "ApoC3 peptide F64T", "value": 467, "unit": "%"}, {"measurement": "% of binding to wild-type peptide", "setting": "ApoC3 peptide D59G", "value": 60.3, "unit": "%"}, {"measurement": "% of binding to wild-type peptide", "setting": "ApoC3 peptide W65V", "value": 17.9, "unit": "%"}, {"measurement": "% of binding to wild-type peptide", "setting": "ApoC3 peptide V71Q", "value": 86.8, "unit": "%"}, {"measurement": "% of binding to wild-type peptide", "setting": "ApoC3 peptide W65K", "value": 0, "unit": "%"}, {"measurement": "% of binding to wild-type peptide", "setting": "ApoC3 peptide S62I", "value": 0.64, "unit": "%"}, {"measurement": "% of binding to wild-type peptide", "setting": "ApoC3 peptide D66Y", "value": 0, "unit": "%"}, {"measurement": "% of binding to wild-type peptide", "setting": "ApoC3 peptide P69M", "value": 29.3, "unit": "%"}, {"measurement": "% of binding to wild-type peptide", "setting": "ApoC3 peptide W65Y", "value": 0, "unit": "%"}, {"measurement": "% of binding to wild-type peptide", "setting": "ApoC3 peptide F61S", "value": 22.6, "unit": "%"}, {"measurement": "% of binding to wild-type peptide", "setting": "ApoC3 peptide E70L", "value": 59.1, "unit": "%"}, {"measurement": "% of binding to wild-type peptide", "setting": "ApoC3 peptide W65Q", "value": 0, "unit": "%"}, {"measurement": "% of binding to wild-type peptide", "setting": "ApoC3 peptide S62E", "value": 0, "unit": "%"}]}]}
